# Data as given in IntAct's records for PubMed 19427866.
# Biological target: T1, nbr1_human NBR1 (UniProt Q14596)
# T1 sequence: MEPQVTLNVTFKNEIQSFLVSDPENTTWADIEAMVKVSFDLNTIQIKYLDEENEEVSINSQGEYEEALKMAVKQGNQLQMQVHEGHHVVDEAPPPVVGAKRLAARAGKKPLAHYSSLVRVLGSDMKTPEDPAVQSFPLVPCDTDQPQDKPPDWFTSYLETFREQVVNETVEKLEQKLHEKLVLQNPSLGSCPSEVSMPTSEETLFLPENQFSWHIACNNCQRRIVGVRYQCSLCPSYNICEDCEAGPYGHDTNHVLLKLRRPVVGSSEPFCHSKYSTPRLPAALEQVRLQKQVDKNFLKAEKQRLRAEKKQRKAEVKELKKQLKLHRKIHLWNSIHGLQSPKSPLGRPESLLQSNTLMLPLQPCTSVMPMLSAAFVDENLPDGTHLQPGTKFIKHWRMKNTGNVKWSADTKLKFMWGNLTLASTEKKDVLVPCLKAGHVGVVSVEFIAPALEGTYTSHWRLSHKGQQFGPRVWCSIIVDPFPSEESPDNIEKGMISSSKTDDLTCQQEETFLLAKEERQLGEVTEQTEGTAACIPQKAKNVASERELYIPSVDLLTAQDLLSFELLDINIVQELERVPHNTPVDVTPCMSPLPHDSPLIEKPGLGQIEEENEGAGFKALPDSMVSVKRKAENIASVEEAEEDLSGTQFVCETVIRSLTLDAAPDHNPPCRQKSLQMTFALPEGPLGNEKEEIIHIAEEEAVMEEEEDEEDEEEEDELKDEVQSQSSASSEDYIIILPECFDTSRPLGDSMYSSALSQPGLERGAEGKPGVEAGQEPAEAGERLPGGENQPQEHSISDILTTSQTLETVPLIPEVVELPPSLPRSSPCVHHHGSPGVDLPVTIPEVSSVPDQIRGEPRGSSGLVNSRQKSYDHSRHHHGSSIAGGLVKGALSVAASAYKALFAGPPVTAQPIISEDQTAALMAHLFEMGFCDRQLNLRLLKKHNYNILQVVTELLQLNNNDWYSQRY
row,Substance,effect of a mutation on the interaction
1,Polyubiquitin-C (Homo sapiens) (from UniProt P0CG48) K33R,decreasing interaction
2,Polyubiquitin-C (Homo sapiens) (from UniProt P0CG48) K63R,decreasing interaction
3,Polyubiquitin-C (Homo sapiens) (from UniProt P0CG48) K48R,decreasing interaction
